Publication PMC4116148 (Biochemistry, 2014)
Read-outs that look alike come from different tables or passages of the source. Non-standard residues stand in square brackets, D forms with d. fluorescein = fluorescein: fluorescein label on the Lys side chain; code γ = not defined here

T1: cNPF1 (head-to-tail cyclic)
T1 chain: YNPFEEGG

T2: cAPA (head-to-tail cyclic)
T2 chain: YAPAEEGG

T3: cNPF1B (SMILES CC(=O)NCCCC[C@@H]1NC(=O)CNC(=O)[C@H](CCC(=O)O)NC(=O)[C@H](CCC(=O)O)NC(=O)[C@H](Cc2ccccc2)NC(=O)[C@@H]2CCCN2C(=O)[C@H](CC(N)=O)NC(=O)[C@H](Cc2ccc(O)cc2)NC1=O)
T3 chain: cyclo(YNPFEEGK(Ac))

T4: cNPF3Flu
T4 chain: cyclo(YNPFEEK(fluorescein))

T5: cNPF5Flu
T5 chain: cyclo(YNPFEAGK(fluorescein))

T6: cNPF4Flu
T6 chain: cyclo(YNPFAEGK(fluorescein))

T7: cNPF6Flu
T7 chain: cyclo(YNPFEQGK(fluorescein))

T8: cAPAFlu
T8 chain: cyclo(YAPAEEGK(fluorescein))

T9: cNPF2Flu (reading uncertain)
T9 chain: cyclo(YNPFEE[code γ]K(fluorescein))

T10: cNPF1Flu
T10 chain: cyclo(YNPFEEGK(fluorescein))

B1: EHD1 EH domain EH (protein)
chain: VGKDKPTYDEIFYTLSPVNGKITGANAKKEMVKSKLPNTVLGKIWKLADVDKDGLLDDEEFALANHLIKVKLEGHELPADLPPHLVPPSKRRHE

Legend:
dynamin GTPase activity = details: biochemical assay of dynamin GTPase activity; cited from earlier work
cNPF1 [1] = target: T1, cNPF1; assay: ITC
cAPA = target: T2, cAPA; assay: fluorescence polarization competition
cNPF1 [2] = target: T1, cNPF1; assay: fluorescence polarization competition
cNPF1B = target: T3, cNPF1B; assay: fluorescence polarization competition
cNPF3Flu [3] = target: T4, cNPF3Flu; assay: fluorescence polarization
cNPF5Flu [4] = target: T5, cNPF5Flu; assay: fluorescence polarization
cNPF4Flu [5] = target: T6, cNPF4Flu; assay: fluorescence polarization
cNPF6Flu [6] = target: T7, cNPF6Flu; assay: fluorescence polarization
cAPAFlu = target: T8, cAPAFlu; assay: fluorescence polarization
cNPF2Flu [7] = target: T9, cNPF2Flu; assay: fluorescence polarization
cNPF1Flu [8] = target: T10, cNPF1Flu; assay: fluorescence polarization
cNPF3Flu [9] = target: T4, cNPF3Flu; assay: fluorescence polarization
cNPF5Flu [10] = target: T5, cNPF5Flu; assay: fluorescence polarization
cNPF4Flu [11] = target: T6, cNPF4Flu; assay: fluorescence polarization
cNPF6Flu [12] = target: T7, cNPF6Flu; assay: fluorescence polarization
cNPF2Flu [13] = target: T9, cNPF2Flu; assay: fluorescence polarization
cNPF1Flu [14] = target: T10, cNPF1Flu; assay: fluorescence polarization

Row | Molecule | IC50 (dynamin GTPase activity) [µM] | Kd (cNPF1 [1]) [µM] | IC50 (cAPA) [µM] | IC50 (cNPF1 [2]) [µM] | IC50 (cNPF1B) [µM] | Kd (cNPF3Flu [3]) [µM] | Kd (cNPF5Flu [4]) [µM] | Kd (cNPF4Flu [5]) [µM] | Kd (cNPF6Flu [6]) [µM] | Kd (cAPAFlu) [µM] | Kd (cNPF2Flu [7]) [µM] | Kd (cNPF1Flu [8]) [µM] | Kd (cNPF3Flu [9]) [µM] | Kd (cNPF5Flu [10]) [µM] | Kd (cNPF4Flu [11]) [µM] | Kd (cNPF6Flu [12]) [µM] | Kd (cNPF2Flu [13]) [µM] | Kd (cNPF1Flu [14]) [µM]
1 | O=C(N/N=C/c1ccc(O)c(O)c1)c1cc2ccccc2cc1O [dynasore] | ~15 | – | – | – | – | – | – | – | – | – | – | – | – | – | – | – | – | –
2 | B1 | – | 9.9 | > 450 | 49.2 | 100 | 11.3 | 8.7 | 17.4 | 12.8 | > 67 | 4.5 | 3.3 | 57.8 | 28.3 | 46.7 | 34 | 20.5 | 16.8
